Consider one substance from PMC11090158.

The test concerns the target GST-tag DNA polymerase (pol) β, wild-type (human) (UniProt P06746). As to the kind of experiment: SPR. A general note: SPR reads the build-up and loss of mass on a sensor chip optically.

The term Kd denotes the concentration at which binding is half-saturated.

In turn, “X-ray cross-complementing protein 1 (XRCC1) V86R, 6x-his tag (from UniProt P18887 1-633) (natural protein)” came in with a dissociation constant Kd of 2700 nM.
